According to patent CN114933651A (dated 2022):

Target: SARS-CoV-2RBD-hFc蛋白 (SARS-CoV-2; human)

B1: R14纳米抗体 (alpaca-derived nanobody R14, with C-terminal hexa-His tag) (VHH)
VHH: QVQLQESGGGLVQPGGSLRLSCAVSGFTLDYYAIGWFRQAPGKEREGVSCISSSDGSTSYADSVKGRFTISRDNAKNTVYLQMNSLKPEDTALYYCAATPATYYSGRYYYQCPAGGMDYWGQGTQVTVSS
Kd: < 0.1 nM
